# Assays:
# Conditions in all cases: peptide exchange yield
# HLA-A*01:01 = HLA-A*01:01 (Homo sapiens, UniProt P04439, A114D/A174V/A182V/D101N/D185E/E176A/E190D/L180R/Q94H/R68K/S129P/T187R/V100A/V91M/W191G); test: MHC binding assay, UV-ligand exchange with β2m ELISA, HLA-A*01:01
# Description: (§1) Candidate peptides for T cell based therapies according to the present invention were further tested for their MHC binding capacity (affinity). The individual peptide-MHC complexes were produced by UV-ligand exchange, where a UV-sensitive peptide is cleaved upon UV-irradiation, and exchanged with the peptide of interest as analyzed. Only peptide candidates that can effectively bind and stabilize the peptide-receptive MHC molecules prevent dissociation of the MHC complexes. To determine the yield of the exchange reaction, an ELISA was performed based on the detection of the light chain (β2m) of stabilized MHC complexes. The assay was performed as generally described in Rodenko et al. (Rodenko et al., 2006).
# (§2) 96 well MAXISorp plates (NUNC) were coated over night with 2 ug/ml streptavidin in PBS at room temperature, washed 4× and blocked for 1 h at 37° C. in 2% BSA containing blocking buffer. Refolded HLA-A*02:01/MLA-001 monomers served as standards, covering the range of 15-500 ng/ml. Peptide-MHC monomers of the UV-exchange reaction were diluted 100-fold in blocking buffer. Samples were incubated for 1 h at 37° C., washed four times, incubated with 2 ug/ml HRP conjugated anti-β2m for 1 h at 37° C., washed again and detected with TMB solution that is stopped with […]. Absorption was measured at 450 nm. Candidate peptides that show a high exchange yield (preferably higher than 50%, most preferred higher than 75%) are generally preferred for a generation and production of antibodies or fragments thereof, and/or T cell receptors or fragments thereof, as they show sufficient avidity to the MHC molecules and prevent dissociation of the MHC complexes.
# HLA-A*02:01 = HLA-A*02:01 (Homo sapiens, UniProt P04439, D140Y/D185E/D98H/E176V/E277Q/G131W/G231S/I119V/I121R/I166T/I218V/L300P/L318F/N151K/N90K/P208A/P217A/Q86G/Q94H/R138H/R169H/T345S); test: MHC binding assay, UV-ligand exchange with β2m ELISA, HLA-A*02:01
# Description: as §1, §2
# HLA-A*24:02 = HLA-A*24:02 (Homo sapiens, UniProt P04439, D101N/D140Y/D185E/E176V/E190D/F33S/G103R/G107R/I119L/I121M/I306V/K335N/L105A/L180Q/L300P/N151K/N90K/Q86E/Q94H/R106L/R138H/R89G/T104I/T345S/V100E/W191G/Y123F); test: MHC binding assay, UV-ligand exchange with β2m ELISA, HLA-A*24:02
# Description: as §1, §2
# HLA-A*03:01 = HLA-A*03:01 (Homo sapiens, UniProt P04439); test: MHC binding assay, UV-ligand exchange with β2m ELISA, HLA-A*03:01
# Description: as §1, §2
Peptide exchange (HLA-A*01:01),Peptide exchange (HLA-A*02:01),Substance,other results
“++++” (>75% = ++++),,1 (LTEGHSGNYY; listed as Homo sapiens) [compound 1],
“+++” (>50 =+++),,4 (ALDQNKMHY; listed as Homo sapiens) [compound 4],
“++++” (>75% = ++++),,6 (VTEGVAQTSFY; listed as Homo sapiens) [compound 6],
“++++” (>75% = ++++),,8 (STDSAGSSY; listed as Homo sapiens) [compound 8],
“++” (>20% = ++),,14 (TFDLTVVSY; listed as Homo sapiens) [compound 14],
,“+++” (>50 = +++),17 (KAYNRVIFV; listed as Homo sapiens) [compound 17],
,“++++” (>75% = ++++),18 (YLLPSVVLL; listed as Homo sapiens) [compound 18],
,“++” (>20% = ++),20 (FSLEDLVRI; listed as Homo sapiens) [compound 20],
,“++++” (>75% = ++++),24 (KLGPVAVSI; listed as Homo sapiens) [compound 24],
,“++++” (>75% = ++++),26 (SLYVQQLKI; listed as Homo sapiens) [compound 26],
“+++” (>50 =+++),,188 (YVDAGTPMY; listed as Homo sapiens) [compound 188],
“+++” (>50 =+++),,191 (ISEAGKDLLY; listed as Homo sapiens) [compound 191],
“++++” (>75% = ++++),,195 (YSDKEFAGSY; listed as Homo sapiens) [compound 195],
,“++++” (>75% = ++++),197 (SLADVHIEV; listed as Homo sapiens) [compound 197],
,“+++” (>50 = +++),198 (KLLGYDVHV; listed as Homo sapiens) [compound 198],
,“++++” (>75% = ++++),199 (AMPDSPAEV; listed as Homo sapiens) [compound 199],
,“+++” (>50 = +++),200 (VMLQINPKL; listed as Homo sapiens) [compound 200],
,“+++” (>50 = +++),201 (ILAAVETRL; listed as Homo sapiens) [compound 201],
,“+++” (>50 = +++),204 (FLLPKVQSIQL; listed as Homo sapiens) [compound 204],
,“++++” (>75% = ++++),205 (FLINTNSEL; listed as Homo sapiens) [compound 205],
,“++++” (>75% = ++++),207 (KLSDNILKL; listed as Homo sapiens) [compound 207],

# The remaining lines, values behind:
Substance,Peptide exchange (HLA-A*01:01),Peptide exchange (HLA-A*02:01),other results
3 (YINPAKLTPY; listed as Homo sapiens) [compound 3],“++” (>20% = ++),,
5 (GTDVLSTRY; listed as Homo sapiens) [compound 5],“+++” (>50 =+++),,
7 (FMDSESFYY; listed as Homo sapiens) [compound 7],“+” (>10% = +),,
9 (YSHPQYSSY; listed as Homo sapiens) [compound 9],“++” (>20% = ++),,
10 (YSDIGHLL; listed as Homo sapiens) [compound 10],“++” (>20% = ++),,
11 (AAADHHSLY; listed as Homo sapiens) [compound 11],“+++” (>50 =+++),,
12 (ATDIVDSQY; listed as Homo sapiens) [compound 12],“+++” (>50 =+++),,
13 (ITDIHIKY; listed as Homo sapiens) [compound 13],“++++” (>75% = ++++),,
15 (SVADIRNAY; listed as Homo sapiens) [compound 15],“++” (>20% = ++),,
16 (WIGDKSFEY; listed as Homo sapiens) [compound 16],“++” (>20% = ++),,
19 (SLFEGIYTI; listed as Homo sapiens) [compound 19],,“++++” (>75% = ++++),
21 (FLFDKLLLI; listed as Homo sapiens) [compound 21],,“++++” (>75% = ++++),
22 (ILHAQTLKI; listed as Homo sapiens) [compound 22],,“+++” (>50 = +++),
23 (FAFSGVLRA; listed as Homo sapiens) [compound 23],,“++” (>20% = ++),
25 (YLNEKSLQL; listed as Homo sapiens) [compound 25],,“++++” (>75% = ++++),
27 (RLIAKEMNI; listed as Homo sapiens) [compound 27],,“++++” (>75% = ++++),
53 (KYIEYYLVL; listed as Homo sapiens) [compound 53],,,Peptide exchange (HLA-A*24:02): “++++” (>75% = ++++)
55 (IFVARLYYF; listed as Homo sapiens) [compound 55],,,Peptide exchange (HLA-A*24:02): “++++” (>75% = ++++)
56 (KYSSGFRNI; listed as Homo sapiens) [compound 56],,,Peptide exchange (HLA-A*24:02): “+++” (>50 = +++)
57 (RFPPTPPLF; listed as Homo sapiens) [compound 57],,,Peptide exchange (HLA-A*24:02): “++++” (>75% = ++++)
58 (KYLADLPTL; listed as Homo sapiens) [compound 58],,,Peptide exchange (HLA-A*24:02): “++++” (>75% = ++++)
61 (IFKEHNFSF; listed as Homo sapiens) [compound 61],,,Peptide exchange (HLA-A*24:02): “++++” (>75% = ++++)
62 (YYLSHLERI; listed as Homo sapiens) [compound 62],,,Peptide exchange (HLA-A*24:02): “++++” (>75% = ++++)
63 (IYFSNTHFF; listed as Homo sapiens) [compound 63],,,Peptide exchange (HLA-A*24:02): “+++” (>50 = +++)

Substance,Peptide exchange (HLA-A*01:01),Peptide exchange (HLA-A*02:01),other results
64 (SFQSKATVF; listed as Homo sapiens) [compound 64],,,Peptide exchange (HLA-A*24:02): “++” (>20% = ++)
67 (VFLPSEGFNF; listed as Homo sapiens) [compound 67],,,Peptide exchange (HLA-A*24:02): “+++” (>50 = +++)
68 (LYQDRFDYL; listed as Homo sapiens) [compound 68],,,Peptide exchange (HLA-A*24:02): “++++” (>75% = ++++)
69 (EYNTIKDKF; listed as Homo sapiens) [compound 69],,,Peptide exchange (HLA-A*24:02): “+++” (>50 = +++)
70 (LYSDIGHLL; listed as Homo sapiens) [compound 70],,,Peptide exchange (HLA-A*24:02): “+++” (>50 = +++)
71 (RYLGKNWSF; listed as Homo sapiens) [compound 71],,,Peptide exchange (HLA-A*24:02): “++++” (>75% = ++++)
72 (TYVENLRLL; listed as Homo sapiens) [compound 72],,,Peptide exchange (HLA-A*24:02): “+++” (>50 = +++)
73 (TYPQLEGFKF; listed as Homo sapiens) [compound 73],,,Peptide exchange (HLA-A*24:02): “++++” (>75% = ++++)
74 (SYADNILSF; listed as Homo sapiens) [compound 74],,,Peptide exchange (HLA-A*24:02): “++++” (>75% = ++++)
75 (RFYLLTEHF; listed as Homo sapiens) [compound 75],,,Peptide exchange (HLA-A*24:02): “+++” (>50 = +++)
189 (VTEEPQRLFY; listed as Homo sapiens) [compound 189],“++++” (>75% = ++++),,
190 (HVDQDLTTY; listed as Homo sapiens) [compound 190],“++” (>20% = ++),,
192 (RSDPGGGGLAY; listed as Homo sapiens) [compound 192],“+++” (>50 =+++),,
193 (LTDSEKGNSY; listed as Homo sapiens) [compound 193],“+++” (>50 =+++),,
194 (YTDKKSIIY; listed as Homo sapiens) [compound 194],“+++” (>50 =+++),,
196 (FTDIDGQVY; listed as Homo sapiens) [compound 196],“+++” (>50 =+++),,
203 (FLLPKVQSI; listed as Homo sapiens) [compound 203],,“++++” (>75% = ++++),
206 (SLMDLQERL; listed as Homo sapiens) [compound 206],,“+++” (>50 = +++),
217 (TTVPHVFSK; listed as Homo sapiens) [compound 217],,,Peptide exchange (HLA-A*03:01): “++” (>20% = ++)
218 (RVLTGVFTK; listed as Homo sapiens) [compound 218],,,Peptide exchange (HLA-A*03:01): “++” (>20% = ++)
219 (HSYSSPSTK; listed as Homo sapiens) [compound 219],,,Peptide exchange (HLA-A*03:01): “+++” (>50 = +++)
220 (SISNLVFTY; listed as Homo sapiens) [compound 220],,,Peptide exchange (HLA-A*03:01): “++” (>20% = ++)
221 (LLNRHILAH; listed as Homo sapiens) [compound 221],,,Peptide exchange (HLA-A*03:01): “+++” (>50 = +++)
